Source: patent US6531296

Columns and labels:
[1] = tested on: QAg mutant with tyrosine 490 changed to phenylalanine
[2] = tested on: QAg mutant with tyrosine 463 changed to phenylalanine
[3] = tested on: QAg mutant with tyrosine 497 changed to phenylalanine
[4] = tested on: QAg mutant with tyrosine 450 changed to phenylalanine
[5] = tested on: QAg, hexahistidine fusion protein of the carboxy-terminal 62 amino acids of Rak

Chain of p50^csk, cytoplasmic tyrosine kinase CSK purified from baculovirus-infected insect cells (P41240 whole entry): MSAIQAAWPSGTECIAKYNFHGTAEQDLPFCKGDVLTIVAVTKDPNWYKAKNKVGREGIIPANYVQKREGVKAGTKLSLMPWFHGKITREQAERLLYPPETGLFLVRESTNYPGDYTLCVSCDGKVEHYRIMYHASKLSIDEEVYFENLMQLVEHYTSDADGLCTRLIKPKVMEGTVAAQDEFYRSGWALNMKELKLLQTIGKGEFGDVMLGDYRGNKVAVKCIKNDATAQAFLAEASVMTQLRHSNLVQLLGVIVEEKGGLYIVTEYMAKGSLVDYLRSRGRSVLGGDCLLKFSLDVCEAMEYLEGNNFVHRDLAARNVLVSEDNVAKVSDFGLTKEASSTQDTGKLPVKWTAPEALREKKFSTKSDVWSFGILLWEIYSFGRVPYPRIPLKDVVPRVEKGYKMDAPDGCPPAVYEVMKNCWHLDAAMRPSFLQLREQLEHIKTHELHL

Substance: p50^csk, cytoplasmic tyrosine kinase CSK purified from baculovirus-infected insect cells
- phosphorylation by CSK (in vitro kinase assay) (fraction of wild-type peptide) [1]: 0.5
- phosphorylation by CSK (in vitro kinase assay) [2]: The mutant at position 463 was phosphorylated at levels equivalent to the wild-type peptide
- phosphorylation by CSK (in vitro kinase assay) [3]: Phosphorylation of the 497 mutant, however, was barely detectable
- phosphorylation by CSK (in vitro kinase assay) (fraction of wild-type peptide) [4]: 0.5
- phosphorylation by CSK (in vitro kinase assay) [5]: This peptide was readily phosphorylated by CSK
